In PMC5412566 (The Journal of Cell Biology, 2017) one finds fold reduction of affinity against the wild-type translocase, Kd and stoichiometry N data, which are given here for six molecules.

Test [1] concerns the target SecA(LCt) (locked C-tail) bound to SecYEG-inverted membrane vesicles (E. coli) (UniProt P10408). In words: co-sedimentation.
The target of test [2] is wild-type SecA-SecYEG translocase (SecA bound to SecYEG-inverted inner membrane vesicles) (E. coli) (UniProt P10408). The experiment in a line: co-sedimentation.
Chain of wild-type SecA-SecYEG translocase (SecA bound to SecYEG-inverted inner membrane vesicles) (E. coli) (P10408 whole entry, chain 1 of 4): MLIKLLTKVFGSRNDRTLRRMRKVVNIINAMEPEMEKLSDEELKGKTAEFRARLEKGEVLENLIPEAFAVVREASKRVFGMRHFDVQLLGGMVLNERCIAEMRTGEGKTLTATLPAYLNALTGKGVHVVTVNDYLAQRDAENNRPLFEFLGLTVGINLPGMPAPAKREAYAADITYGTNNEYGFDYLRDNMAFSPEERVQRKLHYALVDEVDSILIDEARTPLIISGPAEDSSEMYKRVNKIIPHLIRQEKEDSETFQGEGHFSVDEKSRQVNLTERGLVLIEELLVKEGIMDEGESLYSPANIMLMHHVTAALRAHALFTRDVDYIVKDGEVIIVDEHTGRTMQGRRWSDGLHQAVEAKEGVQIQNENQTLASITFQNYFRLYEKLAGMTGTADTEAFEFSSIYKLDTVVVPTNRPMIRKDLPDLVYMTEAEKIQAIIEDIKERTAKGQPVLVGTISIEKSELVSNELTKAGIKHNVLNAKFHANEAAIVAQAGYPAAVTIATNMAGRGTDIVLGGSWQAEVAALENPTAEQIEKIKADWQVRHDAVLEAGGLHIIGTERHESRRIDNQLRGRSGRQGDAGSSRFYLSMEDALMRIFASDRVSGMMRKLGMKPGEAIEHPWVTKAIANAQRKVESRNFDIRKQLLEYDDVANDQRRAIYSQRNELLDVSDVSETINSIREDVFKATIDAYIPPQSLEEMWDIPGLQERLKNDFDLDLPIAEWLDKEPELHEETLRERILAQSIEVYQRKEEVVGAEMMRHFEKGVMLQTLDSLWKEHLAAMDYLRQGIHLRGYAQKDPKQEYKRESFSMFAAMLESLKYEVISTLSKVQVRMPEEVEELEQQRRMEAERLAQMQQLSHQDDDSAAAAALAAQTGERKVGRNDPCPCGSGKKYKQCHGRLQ
Chain of wild-type SecA-SecYEG translocase (SecA bound to SecYEG-inverted inner membrane vesicles) (E. coli) (P0AGA2 whole entry, chain 2 of 4, further chain): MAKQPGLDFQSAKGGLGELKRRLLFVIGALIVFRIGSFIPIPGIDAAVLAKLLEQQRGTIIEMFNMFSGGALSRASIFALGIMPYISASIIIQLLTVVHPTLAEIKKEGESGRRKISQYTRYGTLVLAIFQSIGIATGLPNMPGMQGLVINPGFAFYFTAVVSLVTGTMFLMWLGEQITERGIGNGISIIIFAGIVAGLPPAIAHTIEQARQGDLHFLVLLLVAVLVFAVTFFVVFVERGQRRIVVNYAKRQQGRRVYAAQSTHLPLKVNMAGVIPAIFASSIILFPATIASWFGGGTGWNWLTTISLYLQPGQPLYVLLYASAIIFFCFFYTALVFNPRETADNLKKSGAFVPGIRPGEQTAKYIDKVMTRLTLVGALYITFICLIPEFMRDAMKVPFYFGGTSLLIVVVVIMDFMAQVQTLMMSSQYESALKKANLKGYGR
Chain of wild-type SecA-SecYEG translocase (SecA bound to SecYEG-inverted inner membrane vesicles) (E. coli) (P0AG96 whole entry, chain 3 of 4, further chain): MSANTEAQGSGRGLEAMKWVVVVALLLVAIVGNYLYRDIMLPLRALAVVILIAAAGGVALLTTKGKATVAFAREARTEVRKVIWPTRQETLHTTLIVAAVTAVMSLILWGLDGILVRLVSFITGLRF
Chain of wild-type SecA-SecYEG translocase (SecA bound to SecYEG-inverted inner membrane vesicles) (E. coli) (P0AG99 whole entry, chain 4 of 4, further chain): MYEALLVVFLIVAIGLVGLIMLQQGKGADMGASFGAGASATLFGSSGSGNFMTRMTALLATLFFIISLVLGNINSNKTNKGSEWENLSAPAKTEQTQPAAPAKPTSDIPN
Test [3] addresses native PhoA (E. coli) [phosphatase: P00634]. The experiment in a line: native MS.
The target in test [4] is wild-type SecA-SecYEG translocase (SecA bound to SecYEG-inverted inner membrane vesicles) (E. coli, UniProt P10408;P0AGA2;P0AG96;P0AG99). The experiment in a line: co-sedimentation.
Chain of wild-type SecA-SecYEG translocase (SecA bound to SecYEG-inverted inner membrane vesicles) (P10408 whole entry, chain 1 of 4): as the sequence (P10408 whole entry, chain 1 of 4) above
Chain of wild-type SecA-SecYEG translocase (SecA bound to SecYEG-inverted inner membrane vesicles) (P0AGA2 whole entry, chain 2 of 4): as the sequence (P0AGA2 whole entry, chain 2 of 4, further chain) above
Chain of wild-type SecA-SecYEG translocase (SecA bound to SecYEG-inverted inner membrane vesicles) (P0AG96 whole entry, chain 3 of 4): as the sequence (P0AG96 whole entry, chain 3 of 4, further chain) above
Chain of wild-type SecA-SecYEG translocase (SecA bound to SecYEG-inverted inner membrane vesicles) (P0AG99 whole entry, chain 4 of 4): as the sequence (P0AG99 whole entry, chain 4 of 4, further chain) above

Chain of SecA(LCt) (locked C-tail) bound to SecYEG-inverted membrane vesicles (E. coli) (P10408 whole entry, chain 1 of 4): as the sequence (P10408 whole entry, chain 1 of 4) above
Chain of SecA(LCt) (locked C-tail) bound to SecYEG-inverted membrane vesicles (E. coli) (P0AGA2 whole entry, chain 2 of 4, further chain): as the sequence (P0AGA2 whole entry, chain 2 of 4, further chain) above
Chain of SecA(LCt) (locked C-tail) bound to SecYEG-inverted membrane vesicles (E. coli) (P0AG96 whole entry, chain 3 of 4, further chain): as the sequence (P0AG96 whole entry, chain 3 of 4, further chain) above
Chain of SecA(LCt) (locked C-tail) bound to SecYEG-inverted membrane vesicles (E. coli) (P0AG99 whole entry, chain 4 of 4, further chain): as the sequence (P0AG99 whole entry, chain 4 of 4, further chain) above

Molecule “PhoA (mature domain of proPhoA, signal peptide-less, urea-purified) (from UniProt P00634 22-471) (natural protein)” came in with a fold reduction of affinity against the wild-type translocase in test [1] of 18 fold.

What is called Kd is the concentration at which binding is half-saturated. In test [2], “YncJ(noMTS) (from UniProt P64459 23-76) (natural protein)” showed a Kd greater than 20 µM.

As for “HdeA(noMTS) (from UniProt P0AES9 22-110) (natural protein)”, the Kd in test [2] was greater than 20 µM.

“Lpp(noMTS) (from UniProt P69776 21-78) (natural protein)” yielded a Kd in test [2] greater than 20 µM.

The term stoichiometry N denotes a count of units in the complex or per binding partner. In test [3], “native PhoA (from UniProt P00634 22-471) (enzyme)” displayed a stoichiometry N of 2.

B1: signal peptide of proPhoA, proPhoA(1–30) (peptide)
chain: MKQSTIALALLPLLFTPVTKARTPEMPVLE
In the case of B1, in test [4], the Kd was roughly 3 µM.
